Assay in all cases: BLI Octet RED96, antibody on anti-hIgG Fc tip
(Biolayer interferometry detects binding as a change in optical thickness at a sensor tip.)

Assay [1] deals with T1, soluble FGFR4 receptor protein (human, UniProt P22455 144-369).
T1 sequence: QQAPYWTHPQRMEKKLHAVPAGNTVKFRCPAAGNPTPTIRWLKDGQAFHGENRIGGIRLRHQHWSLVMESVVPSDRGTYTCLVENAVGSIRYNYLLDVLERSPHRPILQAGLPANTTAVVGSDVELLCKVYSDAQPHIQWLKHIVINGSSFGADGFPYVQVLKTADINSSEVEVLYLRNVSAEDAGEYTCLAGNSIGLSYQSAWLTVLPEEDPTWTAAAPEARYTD
How it is done:
(§1) Briefly, the Pall ForteBio Octet RED96 Bio-Layer Interferometry system was used to determine the specificity of anti-FGFR antibodies for FGFR1c, FGFR2c, FGFR3c, and FGFR4. The antibodies and soluble receptor proteins were prepared in PBS at a concentration of 300 nM. First, the candidate antibodies were immobilized on the surface of anti-human IgG Fc biosensor tips for 120 seconds. After immobilization, the biosensors were dipped in PBS solution for 60 seconds (baseline step) to assess assay drift, and determine loading level of antibodies. The baseline step was followed by an association step of 300 seconds wherein the binding interaction between the immobilized antibodies and soluble receptors was measured. Following the association step, the biosensors were dipped into PBS buffer for 600 seconds to measure the dissociation of the bound receptor proteins from the immobilized antibodies. Each binding response was measured and reported real time on a sensorgram trace. For data analysis, a simple 1:1 binding model was used which measures the rate of complex formation of one immobilized antibody and one soluble receptor protein.

Assay [2] has as its target T2, soluble FGFR1c receptor protein (human, UniProt P11362 141-376).
T2 sequence: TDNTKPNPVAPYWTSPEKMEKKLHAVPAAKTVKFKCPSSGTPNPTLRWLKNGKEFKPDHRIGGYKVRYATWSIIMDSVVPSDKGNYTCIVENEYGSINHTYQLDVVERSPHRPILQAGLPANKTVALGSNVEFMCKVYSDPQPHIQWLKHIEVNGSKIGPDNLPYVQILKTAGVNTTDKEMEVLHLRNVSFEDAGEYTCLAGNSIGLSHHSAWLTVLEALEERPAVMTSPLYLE
How it is done: as §1

Assay [3] addresses T3, soluble FGFR3c receptor protein (human, UniProt P22607 141-372).
T3 sequence: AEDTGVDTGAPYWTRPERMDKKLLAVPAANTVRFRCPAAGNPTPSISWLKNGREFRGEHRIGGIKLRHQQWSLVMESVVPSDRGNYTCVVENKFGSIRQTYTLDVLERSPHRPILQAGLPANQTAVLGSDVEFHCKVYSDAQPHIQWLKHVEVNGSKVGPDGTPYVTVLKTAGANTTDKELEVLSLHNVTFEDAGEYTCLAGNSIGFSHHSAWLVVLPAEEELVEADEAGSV
How it is done:
as §1

Assay [4] has as its target soluble FGFR2c receptor protein (human, UniProt P21802 148-377). How it is done:
as §1

Chain of soluble FGFR2c receptor protein (P21802 148-377): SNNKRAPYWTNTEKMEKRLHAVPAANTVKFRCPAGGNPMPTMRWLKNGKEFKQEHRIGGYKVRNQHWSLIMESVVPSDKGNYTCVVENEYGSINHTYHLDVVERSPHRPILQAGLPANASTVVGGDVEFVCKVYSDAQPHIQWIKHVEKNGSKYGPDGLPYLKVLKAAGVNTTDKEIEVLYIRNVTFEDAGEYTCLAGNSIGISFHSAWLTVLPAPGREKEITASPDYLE

B1: Vk2 combined with the VH of Ab15 (antibody, V domains shown)
VH: EVQLLESGGGVVQPGRSLRLSCAASGFTFSSYAMHWVRQAPGKGLEWVAVISYDGSNKYYADSVKGRFTISRDNSKNTLSLQMNSLRVEDTAIYYCVRGAGRGYTYGPDGFDIWGQGTMVTVSS
VL: DIVMTQTPLSLSVTPGQPASISCTSSRSLLHSDGKTYVYWYLQKPGQPPQLLIYELSNRFSGVPDRFSGSGSRTDFTLKISRVEAEDVGVYYCMQYIEAPLTFGGGTKVEIK
notes: captured on anti-human IgG Fc tips
The term Kd denotes the constant that tells how readily two partners part at equilibrium. A lower Kd goes with tighter binding. Broadly, the koff is a measure of how fast the partners let go of each other. A low value points to slow dissociation. One may read the kon as a measure of how fast the partners come together. In the case of B1, the dissociation constant (Kd) in assay [1] was determined as 7.06 nM; in assay [2], 5.74 nM; in assay [3] it was 9.2 nM; in assay [4], 10.8 nM. For the same molecule, the koff in assay [1] was 0.000888 s⁻¹; in assay [2], 0.000313 s⁻¹; in assay [3] it was 0.0011 s⁻¹; in assay [4], 0.00228 s⁻¹. In addition, the on-rate (kon) in assay [1] was determined as 126000 M⁻¹ s⁻¹; in assay [2] it was 54500 M⁻¹ s⁻¹; in assay [3], 120000 M⁻¹ s⁻¹; in assay [4] it was 211000 M⁻¹ s⁻¹.

B2: Vh2 combined with the VL of Ab15 (antibody, V domains shown)
VH: EVQLVESGGGVVQPGRSLRLSCAASGFTFSSYAMHWVRQAPGKGLEWVAVISYDGSNKYYADSVKGRFTISRDNSKNTLYLQMNSLRAEDTAVYYCARGAGRGYTYGPDGFDIWGQGTMVTVSS
VL: DIVMTQTPLSLSVTPGQPASISCTSSRSLLHSDGKTYVYWYVQKSGQPPQLLIYELSNRFSGVPDRFSGSGSRTDFTLKISRVEAEDVGVYYCMQYIEAPLTFGGGTKVEIK
notes: as for B1
In the case of B2, the Kd worked out at 2.84 nM in assay [1], 5.41 nM in assay [2], 6.41 nM in assay [3] and 7.55 nM in assay [4]. For the same molecule, the koff amounted to 0.000492 s⁻¹ in assay [1], 0.000269 s⁻¹ in assay [2], 0.000775 s⁻¹ in assay [3] and 0.00156 s⁻¹ in assay [4]. Further, the association rate constant (kon) in assay [1] came to 173000 M⁻¹ s⁻¹; in assay [2] it was 49700 M⁻¹ s⁻¹; in assay [3], 121000 M⁻¹ s⁻¹; in assay [4], 207000 M⁻¹ s⁻¹.

B3: Vh1 combined with the VL of Ab15 (antibody, V domains shown)
VH: EVQLVESGGGVVQPGRSLRLSCAASGFTFSSYAMHWVRQAPGKGLEWVAVISYDGSNKYYADSVKGRFTISRDNSKNTLYLQMNSLRAEDTAIYYCVRGAGRGYTYGPDGFDIWGQGTMVTVSS
VL: DIVMTQTPLSLSVTPGQPASISCTSSRSLLHSDGKTYVYWYVQKSGQPPQLLIYELSNRFSGVPDRFSGSGSRTDFTLKISRVEAEDVGVYYCMQYIEAPLTFGGGTKVEIK
notes: as for B1
Regarding B3, the equilibrium dissociation constant (Kd) turned out to be 4.01 nM in assay [1], 7.49 nM in assay [2], 8.56 nM in assay [3] and 10.9 nM in assay [4]. The koff in assay [1] turned out to be 0.000682 s⁻¹; in assay [2] it was 0.000356 s⁻¹; in assay [3], 0.001 s⁻¹; in assay [4], 0.0024 s⁻¹. The association rate constant (kon) was 170000 M⁻¹ s⁻¹ in assay [1], 47500 M⁻¹ s⁻¹ in assay [2], 117000 M⁻¹ s⁻¹ in assay [3] and 221000 M⁻¹ s⁻¹ in assay [4].

B4: Vk6 combined with the VH of Ab15 (antibody, V domains shown)
VH: EVQLLESGGGVVQPGRSLRLSCAASGFTFSSYAMHWVRQAPGKGLEWVAVISYDGSNKYYADSVKGRFTISRDNSKNTLSLQMNSLRVEDTAIYYCVRGAGRGYTYGPDGFDIWGQGTMVTVSS
VL: DIVMTQTPLSLSVTPGQPASISCKSSQSLLHSDGKTYLYWYLQKPGQPPQLLIYELSNRFSGVPDRFSGSGSGTDFTLKISRVEAEDVGVYYCMQYIEAPLTFGGGTKVEIK
notes: as for B1
As to B4, the Kd came to 9.31 nM in assay [1], 6.45 nM in assay [2], 12.9 nM in assay [3] and 14.3 nM in assay [4]. The dissociation rate constant (koff) in assay [1] amounted to 0.00112 s⁻¹; in assay [2] it was 0.000344 s⁻¹; in assay [3] it was 0.00157 s⁻¹; in assay [4] it was 0.00313 s⁻¹. The association rate constant (kon) is 120000 M⁻¹ s⁻¹ in assay [1], 53400 M⁻¹ s⁻¹ in assay [2], 121000 M⁻¹ s⁻¹ in assay [3] and 219000 M⁻¹ s⁻¹ in assay [4].

B5: Vk1 combined with the VH of Ab15 (antibody, V domains shown)
VH: EVQLLESGGGVVQPGRSLRLSCAASGFTFSSYAMHWVRQAPGKGLEWVAVISYDGSNKYYADSVKGRFTISRDNSKNTLSLQMNSLRVEDTAIYYCVRGAGRGYTYGPDGFDIWGQGTMVTVSS
VL: DIVMTQTPLSLSVTPGQPASISCTSSRSLLHSDGKTYLYWYLQKPGQPPQLLIYELSNRFSGVPDRFSGSGSRTDFTLKISRVEAEDVGVYYCMQYIEAPLTFGGGTKVEIK
notes: as for B1
As to B5, the Kd came to 8.75 nM in assay [1], 4.7 nM in assay [2], 12.3 nM in assay [3] and 12.7 nM in assay [4]. The off-rate constant (koff) in assay [1] turned out to be 0.00105 s⁻¹; in assay [2] it was 0.000243 s⁻¹; in assay [3] it was 0.00138 s⁻¹; in assay [4], 0.00245 s⁻¹. Besides, the on-rate constant (kon) was found to be 120000 M⁻¹ s⁻¹ in assay [1], 51700 M⁻¹ s⁻¹ in assay [2], 113000 M⁻¹ s⁻¹ in assay [3] and 193000 M⁻¹ s⁻¹ in assay [4].

B6: Vk5 combined with the VH of Ab15 (antibody, V domains shown)
VH: EVQLLESGGGVVQPGRSLRLSCAASGFTFSSYAMHWVRQAPGKGLEWVAVISYDGSNKYYADSVKGRFTISRDNSKNTLSLQMNSLRVEDTAIYYCVRGAGRGYTYGPDGFDIWGQGTMVTVSS
VL: DIVMTQTPLSLSVTPGQPASISCRSSRSLLHSDGKTYVYWYLQKPGQPPQLLIYELSNRFSGVPDRFSGSGSGTDFTLKISRVEAEDVGVYYCMQYIEAPLTFGGGTKVEIK
notes: as for B1
B6: the equilibrium dissociation constant (Kd) in assay [1] came out at 6.05 nM; in assay [2], 3.98 nM; in assay [3], 7 nM; in assay [4], 8.88 nM. Further, the dissociation rate constant (koff) in assay [1] was determined as 0.000752 s⁻¹; in assay [2] it was 0.000215 s⁻¹; in assay [3], 0.000891 s⁻¹; in assay [4], 0.00176 s⁻¹. The kon in assay [1] came out at 124000 M⁻¹ s⁻¹; in assay [2], 54100 M⁻¹ s⁻¹; in assay [3] it was 127000 M⁻¹ s⁻¹; in assay [4] it was 198000 M⁻¹ s⁻¹.

B7: Vk3 combined with the VH of Ab15 (antibody, V domains shown)
VH: EVQLLESGGGVVQPGRSLRLSCAASGFTFSSYAMHWVRQAPGKGLEWVAVISYDGSNKYYADSVKGRFTISRDNSKNTLSLQMNSLRVEDTAIYYCVRGAGRGYTYGPDGFDIWGQGTMVTVSS
VL: DIVMTQTPLSLSVTPGQPASISCTSSRSLLHSDGKTYVYWYLQKSGQPPQLLIYELSNRFSGVPDRFSGSGSRTDFTLKISRVEAEDVGVYYCMQYIEAPLTFGGGTKVEIK
notes: as for B1
As to B7, the Kd in assay [1] is 6.79 nM; in assay [2], 4.79 nM; in assay [3], 7.97 nM; in assay [4], 10.3 nM. Moreover, the dissociation rate constant (koff) worked out at 0.000855 s⁻¹ in assay [1], 0.000262 s⁻¹ in assay [2], 0.00101 s⁻¹ in assay [3] and 0.0022 s⁻¹ in assay [4]. For the same molecule, the on-rate constant (kon) in assay [1] stood at 126000 M⁻¹ s⁻¹; in assay [2], 54600 M⁻¹ s⁻¹; in assay [3], 126000 M⁻¹ s⁻¹; in assay [4], 214000 M⁻¹ s⁻¹.

B8: Vk7 combined with the VH of Ab15 (antibody, V domains shown)
VH: EVQLLESGGGVVQPGRSLRLSCAASGFTFSSYAMHWVRQAPGKGLEWVAVISYDGSNKYYADSVKGRFTISRDNSKNTLSLQMNSLRVEDTAIYYCVRGAGRGYTYGPDGFDIWGQGTMVTVSS
VL: DIVMTQSPLSLPVTPGEPASISCKSSQSLLHSDGKTYLYWYLQKPGQPPQLLIYELSNRFSGVPDRFSGSGSGTDFTLKISRVEAEDVGVYYCMQYIEAPLTFGGGTKVEIK
notes: as for B1
On to B8, for which the Kd in assay [1] came out at 8.33 nM; in assay [2], 5.84 nM; in assay [3], 8.7 nM; in assay [4], 13.1 nM. Further, the koff in assay [1] was determined as 0.00101 s⁻¹; in assay [2], 0.000336 s⁻¹; in assay [3] it was 0.00104 s⁻¹; in assay [4], 0.00274 s⁻¹. For the same molecule, the kon in assay [1] came out at 121000 M⁻¹ s⁻¹; in assay [2], 57600 M⁻¹ s⁻¹; in assay [3], 120000 M⁻¹ s⁻¹; in assay [4], 210000 M⁻¹ s⁻¹.

For the origin of these results see patent US20180244785A1 (MERRIMACK PHARMACEUTICALS, published 2018).
